B1: PGT145 (antibody, V domains shown)
VH: QVQLVQSGAEVKKPGSSVKVSCKASGNSFSNHDVHWVRQATGQGLEWMGWMSHEGDKTGLAQKFQGRVTITRDSGASTVYMELRGLTADDTAIYYCLTGSKHRLRDYFLYNEYGPNYEEWGDYLATLDVWGHGTAVTVSS
VL: EVVITQSPLFLPVTPGEAASLSCKCSHSLQHSTGANYLAWYLQRPGQTPRLLIHLATHRASGVPDRFSGSGSGTDFTLKISRVESDDVGTYYCMQGLHSPWTFGQGTKVEIKR
B2: PGT151 Fab (Fab, V domains shown)
VH: RVQLVESGGGVVQPGKSVRLSCVVSDFPFSKYPMYWVRQAPGKGLEWVAAISGDAWHVVYSNSVQGRFLVSRDNVKNTLYLEMNSLKIEDTAVYRCARMFQESGPPRLDRWSGRNYYYYSGMDVWGQGTTVTVSS
VL: DIVMTQTPLSLSVTPGQPASISCKSSESLRQSNGKTSLYWYRQKPGQSPQLLVFEVSNRFSGVSDRFVGSGSGTDFTLRISRVEAEDVGFYYCMQSKDFPLTFGGGTKVDLKR

What was measured:
BG505 MD53 = assay: SPR (ligand and analyte not given)
AC10 Olio6 = assay: SPR (ligand and analyte not given)
MD39-10MUT = assay: SPR, trimer ligand, Fab analyte (1-to-1 fit relatively poor) [panel A]

Row | Binder | Kd (BG505 MD53) | Kd (AC10 Olio6) | Kd (MD39-10MUT)
1 | B1 | 22 nM | 53 nM | –
2 | B2 | – | – | 35 nM
